From PMC5725786, “Characterization of interactions between hepatitis C virus NS5B polymerase, annexin A2 and RNA – effects on NS5B catalysis and allosteric inhibition”

What was measured:
[1] = molecular target: Bovine annexin A2 (bovine) (UniProt P04272); test: SPR; AnxA2 or mAnxA2 immobilised on a CM5 chip by amine coupling, NS5B (31 to 500 nM) as analyte; multi cycle with regeneration (2 M NaCl and 2 M MgCl2); 25 °C, HBS-EP pH 7.4 with 70 uM Ca2+ and 1 mM Mg2+; approximate steady state analysis, apparent KD
[2] = molecular target: Bovine annexin A2 engineered variant unable to bind RNA (mAnxA2) (bovine) (UniProt P04272); test: as above
mAnxA2 = mAnxA2 (Bos taurus (bovine), UniProt P04272 1-339, K308S;K309S;K310S;K313S;Y317S;Q321S); test: SPR; 3-100 nM RNA over immobilized mAnxA2; 70 uM Ca2+, 1 mM Mg2+; HBS-EP: 10 mM HEPES pH 7.4, 150 mM NaCl, 3 mM EDTA, 0.005% Surfactant P20, 70 uM Ca2+, 1 mM Mg2+, 25 °C; settings: protein: recombinant; single strand
AnxA2 (annexin A2, wt) [3] = molecular target: T1, AnxA2 (annexin A2, wt) (Bos taurus (bovine), UniProt P04272 1-339); test: SPR; steady-state analysis; 70 uM Ca2+, 1 mM Mg2+; AnxA2 immobilized; HBS-EP: 10 mM HEPES pH 7.4, 150 mM NaCl, 3 mM EDTA, 0.005% Surfactant P20, 70 uM Ca2+, 1 mM Mg2+, 25 °C; settings: protein: recombinant; single strand
AnxA2 (annexin A2, wt) [4] = molecular target: T1, AnxA2 (annexin A2, wt); test: SPR; kinetic 1:1 fit (ka 0.99e6 1/Ms, kd 0.002 1/s); 70 uM Ca2+, 1 mM Mg2+; AnxA2 immobilized; HBS-EP: 10 mM HEPES pH 7.4, 150 mM NaCl, 3 mM EDTA, 0.005% Surfactant P20, 70 uM Ca2+, 1 mM Mg2+, 25 °C; settings: protein: recombinant; single strand

“HCV NS5B polymerase, ectodomain (NS5BΔ21), genotype 1b (enzyme)” was tested, and the Kd [1] was 30 nM and the Kd [2] was 240 nM.

GGGGAUUG (ssRNA) [8-mer RNA] was tested, and the binding result (mAnxA2) was “no binding”, the Kd (AnxA2 (annexin A2, wt) [3]) was 8.3 nM and the Kd (AnxA2 (annexin A2, wt) [4]) was 2 nM.
